# Biological target: core Cascade subunits (crRNA, Cas11, Cas7, Cas5, Cas6e) (E. coli K12) (UniProt Q46899)
# Assay: single-particle tracking PALM
# Chain of UniProt Q46899 (Q46899 whole entry, looked up): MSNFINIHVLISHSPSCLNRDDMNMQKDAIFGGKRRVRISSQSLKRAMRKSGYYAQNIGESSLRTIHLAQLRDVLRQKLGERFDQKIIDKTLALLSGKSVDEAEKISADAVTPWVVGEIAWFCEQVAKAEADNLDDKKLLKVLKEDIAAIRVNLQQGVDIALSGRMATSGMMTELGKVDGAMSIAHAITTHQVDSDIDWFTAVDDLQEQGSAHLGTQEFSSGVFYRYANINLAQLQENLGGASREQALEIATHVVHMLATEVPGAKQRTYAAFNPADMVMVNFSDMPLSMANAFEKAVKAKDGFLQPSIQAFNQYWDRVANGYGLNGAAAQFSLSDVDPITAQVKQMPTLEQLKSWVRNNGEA
substance,measurement,value
PAmCherry2-Cas8e (Cascade subunit Cas8e with a photoactivatable fluorescent protein fused to its N-terminus) (natural protein),fraction of Cas8e in Cascade complexes,60%

# Source: publication doi:10.1101/589119
